Measurements taken from US20070212363A1.

Assays:
Assay in all cases: cell-based or functional assay
[1] = biological target: HIV-1 JR-FL envelope glycoprotein (Env) (HIV-1 strain JR-FL)
[2] = biological target: HIV-1 AD8 envelope glycoprotein (Env) (HIV-1 strain AD8)
[3] = biological target: HIV-1 IIIB envelope glycoprotein (Env) (HIV-1 strain IIIB)

| Substance | Neutralizing activity (percentage) at 100 µg/mL [1] | percentage of maximal infection, U87.CD4.CCR5.CXCR4 cells, 100 µg/mL antibody [1] | Neutralizing activity (percentage) at 100 µg/mL [2] | percentage of maximal infection, U87.CD4.CCR5.CXCR4 cells, 100 µg/mL antibody [2] | Neutralizing activity (percentage) at 100 µg/mL [3] | percentage of maximal infection, U87.CD4.CCR5.CXCR4 cells, 100 µg/mL antibody [3] |
| --- | --- | --- | --- | --- | --- | --- |
| Fab X5 | 83% | 27% | 97% | 8.7% | 100% | 10% |
| IgG1 X5 (antibody) | 38% | 72% | 51% | 55% | 84% | 28% |
